The values below come from US20260167699A1 (Chugai, published 2026).

Substitutions are numbered along the chain they refer to.

Test in all cases: SPR; He Ab vs HeCon Ab (GpH7-A5/GpH7-B3/GpL16-k0)=100;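 also: surface plasmon resonance at 25 °C with the test antibody captured on a sensor chip via antigenic peptide, protein L or protein A/G and FcγR flowed over as analyte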
Assay [1] addresses T1, FcγRIa extracellular domain, C-terminal His tag (human, UniProt P12314 16-292).
T1 construct: extracellular domain; also called 1a
Description: (§1) The antibody of interest was analyzed for its interaction with FcγR using a BiaCore™ T100, BiaCore™ A100, or BiaCore™ 4000 surface plasmon resonance system (GE Healthcare Japan Corp.). The running buffer used was HBS-EP+ (GE Healthcare Japan Corp.). The assay temperature was set to 25° C. The sensor chips used were: a chip prepared by immobilizing antigenic peptides onto Series S Sensor Chip CM5 (GE Healthcare Japan Corp.) by the amine coupling method; a chip prepared by immobilizing antigenic peptides biotinylated in advance onto Series S Sensor Chip SA (certified) (GE Healthcare Japan Corp.) through their interaction; a chip prepared by immobilizing protein L (ACTIGEN, BioVision, Inc.) onto Series S Sensor Chip CM5 (GE Healthcare Japan Corp.); and a chip prepared by immobilizing protein A/G (Thermo Fisher Scientific K.K.) onto Series S Sensor Chip CM5 (GE Healthcare Japan Corp.). The antibody of interest was captured onto any of these chips and allowed to interact with FcγR diluted with a running buffer. The antibody captured on the chip was washed off through the reaction of 10 mM glycine-HCl (pH 1.5) to regenerate the chip, which was repetitively used.

Assay [2] addresses T2, FcγRIIa(R) extracellular domain, C-terminal His tag (human, UniProt P12318 34-217).
T2 construct: extracellular domain; also called 2aR
T2 sequence: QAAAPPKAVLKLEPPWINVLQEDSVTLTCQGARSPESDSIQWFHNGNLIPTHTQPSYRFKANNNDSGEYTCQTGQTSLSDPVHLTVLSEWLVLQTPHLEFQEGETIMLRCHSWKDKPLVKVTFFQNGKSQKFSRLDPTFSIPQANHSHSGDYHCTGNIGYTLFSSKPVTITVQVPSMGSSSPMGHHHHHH
Description: as §1

The target in assay [3] is T3, FcγRIIa(H) extracellular domain, C-terminal His tag (human, UniProt P12318 34-217).
T3 construct: extracellular domain; also called 2aH
T3 sequence: T2 sequence with R134H
Description: as §1

Assay [4] concerns the target T4, FcγRIIb extracellular domain, C-terminal His tag (human, UniProt P31994 43-217).
T4 construct: extracellular domain; also called 2b
T4 sequence: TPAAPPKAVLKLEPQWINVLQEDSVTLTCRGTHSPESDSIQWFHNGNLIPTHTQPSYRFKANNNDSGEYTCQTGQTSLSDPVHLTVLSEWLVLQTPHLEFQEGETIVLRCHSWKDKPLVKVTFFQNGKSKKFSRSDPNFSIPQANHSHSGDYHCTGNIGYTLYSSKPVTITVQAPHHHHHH
Description: as §1

Assay [5] has as its target T5, FcγRIIIa extracellular domain, C-terminal His tag (human, UniProt P08637 17-208).
T5 construct: extracellular domain; also called 3a
Description: as §1

T1 sequence (P12314 other isoform, or with tags, fused parts or gaps): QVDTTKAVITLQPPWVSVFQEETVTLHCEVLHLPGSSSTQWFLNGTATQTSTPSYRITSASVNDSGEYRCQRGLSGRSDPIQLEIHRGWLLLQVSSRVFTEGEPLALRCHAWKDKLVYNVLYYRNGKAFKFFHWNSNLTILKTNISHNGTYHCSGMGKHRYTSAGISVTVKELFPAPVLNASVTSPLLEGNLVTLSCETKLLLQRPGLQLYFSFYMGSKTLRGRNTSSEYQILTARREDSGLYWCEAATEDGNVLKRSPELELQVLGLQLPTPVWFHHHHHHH
T5 sequence (P08637 other isoform, or with tags, fused parts or gaps): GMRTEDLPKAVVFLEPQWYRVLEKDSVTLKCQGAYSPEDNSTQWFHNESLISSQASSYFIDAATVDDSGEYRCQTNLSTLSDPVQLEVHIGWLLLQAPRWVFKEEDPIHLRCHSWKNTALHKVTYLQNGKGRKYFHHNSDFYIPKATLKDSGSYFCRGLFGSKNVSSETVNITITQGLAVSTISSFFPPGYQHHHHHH

B1: GpH7-A5/GpH7-B3 variant Y296_12R/GpL16-k0 (antibody, human IgG1, kappa)
heavy 1: not shown
heavy 2: not shown
light: DIVMTQSPLSLPVTPGEPASISCQASESLVHSNRNTYLHWYLQKPGQSPQLLIYKVSNRFSGVPDRFSGSGSGTDFTLKISRVEAEDVGVYYCSQNTHVPPTFGQGTKVEIERTVAAPSVFIFPPSDEQLKSGTASVVCLLNNFYPREAKVQWKVDNALQSGNSQESVTEQDSKDSTYSLSSTLTLSKADYEKHKVYACEVTHQGLSSPVTKSFNRGEC
notes: heterodimerized IgG1, one H chain mutated; also called He Ab; copies: 1 + 1 + 2
On to B1, for which, in assay [1], the “He/Con 1a” value is 103%. Further, the “He/Con 2aR” value in assay [2] worked out at 95.3%. Besides, the “He/Con 2aH” value in assay [3] worked out at 89.1%. Further, the “He/Con 2b” value in assay [4] is 80.5%. For the same molecule, the “He/Con 3a” value in assay [5] came to 66.5%.

B2: GpH7-A5/GpH7-B3 variant Y300_09D/GpL16-k0 (antibody, human IgG1, kappa)
heavy 1: not shown
heavy 2: not shown
light: B1 light
notes: as for B1
For B2, the “He/Con 1a” value in assay [1] turned out to be 106%. The “He/Con 2aR” value in assay [2] was 105%. In addition, the “He/Con 2aH” value in assay [3] came out at 101%. For the same molecule, the “He/Con 2b” value in assay [4] worked out at 122%. In assay [5], the “He/Con 3a” value was found to be 104%.

B3: GpH7-A5/GpH7-B3 variant Y296_20W/GpL16-k0 (antibody, human IgG1, kappa)
heavy 1: not shown
heavy 2: not shown
light: B1 light
notes: as for B1
For the molecule B3, the “He/Con 1a” value in assay [1] was 107%. Further, the “He/Con 2aR” value in assay [2] stood at 105%. For the same molecule, in assay [3], the “He/Con 2aH” value is 95.4%. Further, the “He/Con 2b” value in assay [4] came out at 105%. Also, the “He/Con 3a” value in assay [5] was 127%.

B4: GpH7-A5/GpH7-B3 variant Y300_10E/GpL16-k0 (antibody, human IgG1, kappa)
heavy 1: not shown
heavy 2: not shown
light: B1 light
notes: as for B1
As for B4, the “He/Con 1a” value in assay [1] was 108%. Also, in assay [2], the “He/Con 2aR” value is 127%. For the same molecule, the “He/Con 2aH” value in assay [3] stood at 108%. The “He/Con 2b” value in assay [4] is 175%. Moreover, the “He/Con 3a” value in assay [5] worked out at 113%.

B5: GpH7-A5/GpH7-B3 variant Y300_08L/GpL16-k0 (antibody, human IgG1, kappa)
heavy 1: not shown
heavy 2: not shown
light: B1 light
notes: as for B1
Consider B5, for which the “He/Con 1a” value in assay [1] stood at 107%. In addition, in assay [2], the “He/Con 2aR” value amounted to 96.9%. Besides, in assay [3], the “He/Con 2aH” value amounted to 120%. In assay [4], the “He/Con 2b” value is 96.1%. Also, the “He/Con 3a” value in assay [5] is 114%.

B6: GpH7-A5/GpH7-B3 variant Y300_03V/GpL16-k0 (antibody, human IgG1, kappa)
heavy 1: not shown
heavy 2: not shown
light: B1 light
notes: as for B1
B6: in assay [1], the “He/Con 1a” value came to 110%. Besides, the “He/Con 2aR” value in assay [2] is 96.8%. In addition, the “He/Con 2aH” value in assay [3] was 109%. The “He/Con 2b” value in assay [4] was determined as 96.5%. For the same molecule, the “He/Con 3a” value in assay [5] amounted to 83.8%.

B7: GpH7-A5/GpH7-B3 variant Y296_13S/GpL16-k0 (antibody, human IgG1, kappa)
heavy 1: not shown
heavy 2: not shown
light: B1 light
notes: as for B1
Consider B7, for which, in assay [1], the “He/Con 1a” value was determined as 102%. Also, the “He/Con 2aR” value in assay [2] amounted to 97.5%. Moreover, in assay [3], the “He/Con 2aH” value is 96.1%. Besides, in assay [4], the “He/Con 2b” value was 87.5%. Also, the “He/Con 3a” value in assay [5] is 58.1%.

B8: GpH7-A5/GpH7-B3 variant Y300_07I/GpL16-k0 (antibody, human IgG1, kappa)
heavy 1: not shown
heavy 2: not shown
light: B1 light
notes: as for B1
Turning to B8, the “He/Con 1a” value in assay [1] was 102%. Further, in assay [2], the “He/Con 2aR” value was found to be 90.9%. In addition, the “He/Con 2aH” value in assay [3] is 120%. For the same molecule, the “He/Con 2b” value in assay [4] is 97.4%. The “He/Con 3a” value in assay [5] was 103%.

B9: GpH7-A5/GpH7-B3 variant Y300_11K/GpL16-k0 (antibody, human IgG1, kappa)
heavy 1: not shown
heavy 2: not shown
light: B1 light
notes: as for B1
Take B9: the “He/Con 1a” value in assay [1] is 101%. In addition, the “He/Con 2aR” value in assay [2] is 73.1%. The “He/Con 2aH” value in assay [3] was found to be 74.2%. Also, the “He/Con 2b” value in assay [4] was found to be 67.4%. Also, in assay [5], the “He/Con 3a” value turned out to be 63.7%.

B10: GpH7-A5/GpH7-B3 variant Y300_18N/GpL16-k0 (antibody, human IgG1, kappa)
heavy 1: not shown
heavy 2: not shown
light: B1 light
notes: as for B1
As for B10, in assay [1], the “He/Con 1a” value is 101%. The “He/Con 2aR” value in assay [2] was 96.2%. Besides, the “He/Con 2aH” value in assay [3] was 101%. The “He/Con 2b” value in assay [4] was 92.7%. Also, in assay [5], the “He/Con 3a” value was found to be 96%.

B11: GpH7-A5/GpH7-B3 variant Y300_02A/GpL16-k0 (antibody, human IgG1, kappa)
heavy 1: not shown
heavy 2: not shown
light: B1 light
notes: as for B1
Consider B11, for which the “He/Con 1a” value in assay [1] was 106%. Further, the “He/Con 2aR” value in assay [2] turned out to be 92.9%. In assay [3], the “He/Con 2aH” value turned out to be 104%. Moreover, the “He/Con 2b” value in assay [4] was 90.5%. For the same molecule, in assay [5], the “He/Con 3a” value came to 88.1%.

B12: GpH7-A5/GpH7-B3 variant Y300_13S/GpL16-k0 (antibody, human IgG1, kappa)
heavy 1: not shown
heavy 2: not shown
light: B1 light
notes: as for B1
Turning to B12, the “He/Con 1a” value in assay [1] was determined as 105%. Besides, the “He/Con 2aR” value in assay [2] was 72.4%. In addition, in assay [3], the “He/Con 2aH” value was 97.8%. Besides, in assay [4], the “He/Con 2b” value came to 70.4%. For the same molecule, the “He/Con 3a” value in assay [5] came to 80.3%.

B13: GpH7-A5/GpH7-B3 variant Y300_04F/GpL16-k0 (antibody, human IgG1, kappa)
heavy 1: not shown
heavy 2: not shown
light: B1 light
notes: as for B1
Turning to B13, in assay [1], the “He/Con 1a” value was determined as 102%. Further, in assay [2], the “He/Con 2aR” value worked out at 103%. Besides, the “He/Con 2aH” value in assay [3] came out at 103%. The “He/Con 2b” value in assay [4] was determined as 106%. In addition, the “He/Con 3a” value in assay [5] stood at 100%.

B14: GpH7-A5/GpH7-B3 variant Y296_16H/GpL16-k0 (antibody, human IgG1, kappa)
heavy 1: not shown
heavy 2: not shown
light: B1 light
notes: as for B1
With B14, the “He/Con 1a” value in assay [1] turned out to be 103%. The “He/Con 2aR” value in assay [2] was 100%. Also, in assay [3], the “He/Con 2aH” value is 101%. The “He/Con 2b” value in assay [4] was determined as 93.5%. In addition, the “He/Con 3a” value in assay [5] is 69.1%.

B15: GpH7-A5/GpH7-B3 variant Y300_16H/GpL16-k0 (antibody, human IgG1, kappa)
heavy 1: not shown
heavy 2: not shown
light: B1 light
notes: as for B1
As for B15, the “He/Con 1a” value in assay [1] was found to be 105%. Also, in assay [2], the “He/Con 2aR” value came to 103%. For the same molecule, in assay [3], the “He/Con 2aH” value turned out to be 105%. Besides, the “He/Con 2b” value in assay [4] came to 114%. Further, the “He/Con 3a” value in assay [5] came to 102%.

B16: GpH7-A5/GpH7-B3 variant Y296_14T/GpL16-k0 (antibody, human IgG1, kappa)
heavy 1: not shown
heavy 2: not shown
light: B1 light
notes: as for B1
Consider B16, for which the “He/Con 1a” value in assay [1] is 102%. Further, in assay [2], the “He/Con 2aR” value was determined as 98.6%. Also, in assay [3], the “He/Con 2aH” value came to 97.2%. The “He/Con 2b” value in assay [4] came out at 89.4%. For the same molecule, in assay [5], the “He/Con 3a” value was 60.7%.

B17: GpH7-A5/GpH7-B3 variant Y296_18N/GpL16-k0 (antibody, human IgG1, kappa)
heavy 1: not shown
heavy 2: not shown
light: B1 light
notes: as for B1
On to B17, for which, in assay [1], the “He/Con 1a” value was found to be 102%. The “He/Con 2aR” value in assay [2] was determined as 99.6%. Further, the “He/Con 2aH” value in assay [3] turned out to be 101%. The “He/Con 2b” value in assay [4] worked out at 92.8%. Further, in assay [5], the “He/Con 3a” value came to 67.9%.

B18: GpH7-A5/GpH7-B3 variant Y300_01G/GpL16-k0 (antibody, human IgG1, kappa)
heavy 1: not shown
heavy 2: not shown
light: B1 light
notes: as for B1
Take B18: the “He/Con 1a” value in assay [1] stood at 110%. Besides, the “He/Con 2aR” value in assay [2] is 66.6%. In assay [3], the “He/Con 2aH” value worked out at 82.6%. The “He/Con 2b” value in assay [4] worked out at 63.2%. The “He/Con 3a” value in assay [5] came out at 88.6%.

B19: GpH7-A5/GpH7-B3 variant Y296_19Q/GpL16-k0 (antibody, human IgG1, kappa)
heavy 1: not shown
heavy 2: not shown
light: B1 light
notes: as for B1
For the molecule B19, the “He/Con 1a” value in assay [1] amounted to 108%. Further, in assay [2], the “He/Con 2aR” value amounted to 97.9%. The “He/Con 2aH” value in assay [3] worked out at 94.3%. The “He/Con 2b” value in assay [4] came out at 90.5%. Further, the “He/Con 3a” value in assay [5] was 71.4%.

B20: GpH7-A5/GpH7-B3 variant Y300_14T/GpL16-k0 (antibody, human IgG1, kappa)
heavy 1: not shown
heavy 2: not shown
light: B1 light
notes: as for B1
B20: in assay [1], the “He/Con 1a” value was found to be 105%. For the same molecule, the “He/Con 2aR” value in assay [2] was determined as 78.6%. Also, the “He/Con 2aH” value in assay [3] worked out at 104%. In addition, the “He/Con 2b” value in assay [4] came out at 72.7%. Further, the “He/Con 3a” value in assay [5] was found to be 92.8%.

B21: GpH7-A5/GpH7-B3 variant Y300_06M/GpL16-k0 (antibody, human IgG1, kappa)
heavy 1: not shown
heavy 2: not shown
light: B1 light
notes: as for B1
Consider B21, for which, in assay [1], the “He/Con 1a” value amounted to 106%. Also, the “He/Con 2aR” value in assay [2] is 105%. In addition, the “He/Con 2aH” value in assay [3] amounted to 116%. The “He/Con 2b” value in assay [4] turned out to be 110%. Besides, the “He/Con 3a” value in assay [5] was 106%.
